Here are results for one molecule from patent US20250340628A1, “COMPOSITIONS AND METHODS FOR TREATING MACROPHAGE ACTIVATION SYNDROME” (TJ Biopharma (Hangzhou) Co., Ltd., priority 2022, published 2025).

The subject of series [1] is macrophage activation syndrome (MAS) model in NOG-EXL mice (overexpress human IL-3 and GM-CSF). As to the kind of experiment: macrophage activation syndrome (MAS) model induced by CBMC transplantation in NOG-EXL mice. Format: in vivo. On the procedure: This study is performed to evaluate the in vivo efficacy of IMH001 (see sequences in Table 1), a GM-CSF neutralization antibody, on delaying the disease progression in a macrophage activation syndrome (MAS) model (induced by CBMC transplantation) in NOG-EXL mice. This lymphocyte-independent, effector-driven MAS mice model can be established by engrafting human umbilical cord blood (UCB) into NOG-EXL mice. NOG-EXL (NOD.Cg-Prkdc^scidIL2g^tm1SugTg (SV40/HTLV-IL3, CSF2) is a gene modified strain based on NOG (NOD.Cg-Prkdc^scidIL2^tm1Sug) mice, which is immunodeficient and overexpress human IL-3 and GM-CSF continuously, which can enrich the myeloid cell populations, including Dc, monocyte and macrophage, following human stem cell engraftment. A total of 46 NOG-EXL and 8 NOG mice were used in the study.
Five to six-week-old NOG-EXL mice were irradiated with 1 Gy before tail vein injection of OKT3-pretreated cord blood mononuclear cells (CBMC) reconstitution. The day of reconstruction was defined as Day 0. OKT3-pretreated CBMC engrafted NOG-EXL mice were treated with biweekly i.p. doses of PBS or 10 mg/kg IMH001 starting from week 1 of engraftment. Animal body weights, CBC counting, and serum ferritin were measured at indicated time points.
Four NOG mice (G1) and 14 NOG-EXL mice (6 mice for G2 and 8 mice for G3, respectively) were dosed one week after reconstruction (Day 7), twice a week for 15 weeks. The grouping and dosing regimens were as follows in Table 2:
Body weight: The body weight of mice was measured and recorded once a week after CBMC transplantation.
CBC counting: Whole blood was collected from mice and counted by a CBC machine at week 4, 8 and 16. And at the end of the study, i.e. week 16, total bone marrow viable cells were also counted. Before blood collection, mice were anesthetized with 3-4% isoflurane.
Ferritin, fibrinogen and triglycerides: Serum was collected from mice at week 8 and 16. Then measured separately using ELISA kits. Prior to blood collection, mice were anesthetized with 3-4% isoflurane.
Experimental endpoint collection: The endpoint is Day 112/Week 16. Spleens were collected and weighed from all mice of each groups; cell smears from bone marrow, sections of liver and spleen were collected for Wright Giemsa staining to detect the presence of hemophagocytosis. Activated lymphoid tissue, spleen/lymph nodes, liver, and meninges were collected for H&E section to detect inflammatory cell infiltration and depletion of lymphoid follicles in spleen/lymph nodes.
All data statistical analysis methods involved in this project needed to be consistent with the protocol, and the results were expressed as mean±SEM. Firstly, F-test (IDBS E-WorkBook 10.5.0 (64 bit) © TDBS) was used to analyze the homogeneity of variance. If the variance was homogeneity (p>0.05), one-way ANOVA was carried out. T-test was used for two groups comparation, and Dunnett's multiple comparison method was used for multiple groups comparation. If the variance was heterocedasticity (p≤0.05), Kruskal Wallis method was performed for nonparametric test, U-test was used for two groups comparation (Kruskal Wallis parameter test has significant difference, p≤0.05), and Dunn's multiple comparison method was used for multiple groups comparation (Kruskal Wallis parameter test has no significant difference, p>0.05). p<0.05 was considered as significant difference.

The format of series [2] is physicochemical. On the procedure: Three different buffer systems, sodium acetate, histidine hydrochloride and sodium dihydrogen phosphate, were initially evaluated, at various different pH levels, for IMH001. […] The next step evaluated a number of excipients, including sucrose, trehalose, mannitol, proline, arginine hydrochloride, glycine, solidum chloride, PS20 and PS80. According to the changes in stability (CEX-HPLC) results at 50° C. for 1 week, comparison was carried out for the formulation with different excipients. […] It was unknown, however, whether the selected buffer and excipient would allow a protein solubility of IMH001 suitable for subcutaneous injection at a high concentration. The solubility and viscosity of the protein at concentrations of 100 mg/ml and 150 mg/ml in histidine hydrochloride buffer system (pH 5.8) were therefore assessed. […] PS80 (Polysorbate 80) was then tested for its ability to improve durability and stability of the candidate formulations, at different concentrations of sucrose for a protein concentration of 100 mg/ml.

The mark [3] stands for this setting: serum, week 8 and 16, 10 mg/kg i.p. BIW.
Setting [4] is: 100 mg/ml and 150 mg/ml in 20 mmol/L histidine hydrochloride pH 5.8, 4° C. and 25° C. for 48 hours.

Entries after “also recorded” stand apart in the source; their conditions may differ.

B1: IMH001: humanized IgG1 anti-GM-CSF neutralization antibody with VH of SEQ ID NO:1 and VL of SEQ ID NO:2 (antibody, V domains shown)
VH: EVQLVQSGAEVKKPGASVKVSCKASGYTFTSHYLHWVRQAPGQGLEWMGWIFPGDDKTKYNEKFKGRVTMTSDTSISTAYMELSRLRSDDTAVYYCARGTKYLNWNFDVWGQGTTVTVSS
VL: DIQLTQSPSFLSASVGDRVTITCKANQNVGTTLAWYQQKPGKSPKALIYSASYRYSGVPDRFSGSGSGTDFTLTISSLQPEDFATYFCHQYTTYPLTFGGGTKVEIK
For B1, in series [1] (10 mg/kg i.p. BIW (G3) vs vehicle control group (G2), Day 63 to Day 112, p<0.05), the body weight entry is given as “significantly increased; also recorded: reduced weight loss”. Moreover, the “disease development / progression (overall)” value in series [1] (10 mg/kg i.p. BIW for 15 weeks) was “completely reversed; also recorded: showed efficacy”. In addition, the NEUT percent entry in series [1] (10 mg/kg i.p. BIW vs untreated) was “recovery”. In addition, the “RBC number in peripheral blood (anemia)” value in series [1] (10 mg/kg i.p. BIW vs untreated NOG-EXL, in words) is “effectively improve; also recorded: ameliorated anemia”. In series [1] (10 mg/kg i.p. BIW vs untreated, Day 56), the HGB level entry is “significantly higher; also recorded: increase”. The monocyte percent entry in series [1] (10 mg/kg i.p. BIW, considered pharmacological effect) is listed as “decrease”. The “total bone marrow viable cells (mean value)” value in series [1] (day 112, 10 mg/kg i.p. BIW, vs NOG-EXL untreated 9.55, p=0.182) came out at 11.6. The same molecule came in with an RBC cell number in series [1] (peripheral blood CBC, Day 56, 10 mg/kg i.p. BIW, vs untreated 6.45, p<0.001) of 8.17. In series [1] (setting [3]), the Fibrinogen result is recorded as “No significant changes” and the Triglyceride result is reported as “No significant changes”. Further, in series [1] (serum, wk 8 and wk 16, 10 mg/kg i.p. BIW vs untreated), the Ferritin level entry was “effectively control; also recorded: significantly reduce; also recorded: inhibited ferritin increase”. In addition, the “inflammatory infiltration (histopathology)” value in series [1] (wk 16, H&E, liver and meninx) is listed as “decreased; also recorded: improved significantly”. Besides, the “lymphocyte exhaustion (histopathology)” value in series [1] (wk 16, H&E, spleen and lymph nodes) was “effectively reduce; also recorded: improved significantly”. Moreover, the “hemophagocytosis (histopathology)” value in series [1] (wk 16, Wright Giemsa staining of bone marrow smears, liver and spleen sections) is given as “effectively prevent; also recorded: improved significantly”. For the same molecule, in series [2], the “antibody stability in buffer systems” value is reported as “stable”. For the same molecule, in series [2] (setting [4]), the “changes in appearance color, clarity, OD350, protein concentration and viscosity” value is recorded as “no obvious changes”; the viscosity result was “lower than 10 cP”. For the same molecule, the “viscosity of samples with PS80 and different sucrose concentrations” value in series [2] (protein concentration 100 mg/ml) is recorded as “acceptable”.
